# In patent publication US20250326863A1:
# Target: human IgG
# Assay: bio-layer interferometry
binder,measurement,value
"recombinant monoclonal low affinity rheumatoid factor RF^low (human IgM; RC1 of Youngblood et al. 1994) (antibody, V domains shown) VH: QVQLVQSGGGVVQPGRSLRLSCAASGFTFSSYAMHWVRQAPGKGLEWVAVISYDGSNKYYAESVKGRFTISRDNSKNTLYLRMNSLRTEETAVYYCARDGDVGSYGPGTYYPIDYWGQGTLVSVSP VL: EIVLTQSPATLSLSPGERATLSCRASQSVSSYLAWYQEKPGTAPRLLIYDASNRATGIPARFSGSGSGTDFTLTISSLEPEDFAVYYCQQRRNWPLTFGPGTKVDIK",Kd,100 nM
